Read-outs that look alike come from different tables or passages of the source.
Assays:
[1] = biological target: T1, human FOLR1 expressed on SKOV-3 ovarian carcinoma cells (human, UniProt P15328 25-234); assay: saturation binding of 131I-labelled untagged VHH on SKOV-3 cells
T1 construct: Naturally expressed receptor on SKOV-3 cells; also called human FOLR1pos SKOV-3 cancer cells; human FOLR1-expressing cell line SKOV-3

[2] = biological target: T1, human FOLR1 expressed on SKOV-3 ovarian …; assay: as above; remark: listed apart in the source
Procedure: In a first part, their in vitro behaviour was assessed by means of investigating their cellular binding and retention over time. The binding potential of the resulting radioconjugates was assessed to confirm that this was not affected by the introduction of ¹³¹I-SGMIB into the amino acid sequence of the different VHHs. To this, human FOLR1^pos SKOV-3 cancer cells were incubated with serial dilutions with concentrations ranging from 0 to 300 nM of the different ¹³¹I-labelled, His₆ tagged VHHs. A 100-fold excess of the corresponding unlabeled VHH was added in parallel to saturate the human FOLR1 receptors expressed on cancer cells, to assess non-specific binding.
A1 and A2 parental untagged VHH’s and derivatives were radiolabeled with theranostic isotope ¹³¹I, as described in example 3, and subjected to saturation binding studies as described in example 6.

[3] = biological target: T1, human FOLR1 expressed on SKOV-3 ovarian …; assay: cellular retention on SKOV-3 cells: 10 nM 131I-VHH 1 h at 4 C, then up to 24 h at 37 C; membrane-bound plus internalized fraction
Procedure, shortened: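 His₆-tagged and untagged ¹³¹I-VHHs were tested, with a 100-fold excess of unlabeled VHH for non-specific binding. Unbound and dissociated fractions were collected. Membrane-bound label was stripped with 0.05 M glycine pH 2.8, and internalized label was recovered by 1 M NaOH solubilization.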

T1 sequence (P15328 25-234 limits assumed): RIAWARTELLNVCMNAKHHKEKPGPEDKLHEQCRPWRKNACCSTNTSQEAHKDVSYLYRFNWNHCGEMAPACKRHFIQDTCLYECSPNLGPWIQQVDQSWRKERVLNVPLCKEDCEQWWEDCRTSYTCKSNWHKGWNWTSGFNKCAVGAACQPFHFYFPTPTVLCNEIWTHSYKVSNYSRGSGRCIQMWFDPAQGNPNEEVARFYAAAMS

EC50 [1]: 1.2 nM
EC50 [2]: 1.1 nM
cell-associated fraction of initial bound activity after 24 h [3]: ~40%
B1: 131I-labeled untagged VHH A1 (VHH)
VHH: DVQLVESGGGLVQPGGSLRLSCAASESIFSRNHMSWYRQAPGKQRELAAIITSDGNTNYPDSVKGRFTISRDNAKNTVYLQMNSLKPEDTAVYYCNTFGRSVAGFYDYWGQGTQVTVSS
modifications: [131I]SGMIB conjugated to lysine side-chain amine groups

Reference: patent publication US20230340111A1 (published 2023)
